The record followed here is publication PMC2191588.

The assay concerns the target TCR beta proteins on normal splenic CD4+ T cells (mouse (endogenous in splenic CD4+ T cells)). The assay is described as follows: flow cytometry on cells. Background: Flow cytometry measures light scatter and fluorescence of single cells or particles in a stream.

For “CD3 epsilon (from UniProt P22646 22-189) (natural protein)”, the stoichiometry N (CD3e per TCR beta) is 2.
